Numbered stars: 1 amine (or outer) side, 2 acyl side, 3 side chain; on linkers, the order of the positions; unused ones are H or OH. Bridge positions count the residues as written; N and C are the ends. Square brackets hold non-standard residues; d marks the D form. Primed or numbered codes have the meaning given here. Ends that are not written are not given here. * marks the point of attachment. C22 diacid′ = docosanedioic acid (C22 diacid) acyl; C20 diacid = O=C(O)CCCCCCCCCCCCCCCCCCC(=O)*; C18 diacid = O=C(O)CCCCCCCCCCCCCCCCC(=O)*; C16 diacid = O=C(O)CCCCCCCCCCCCCCC(=O)*; γGlu = O=C(O)[C@H](CCC(=O)[*:2])N[*:1]; βAsp = O=C(O)[C@H](CC(=O)[*:2])N[*:1]; Hyp = O=C(O)[C@@H]1C[C@@H](O)CN1; Inp′ = not defined here; AEEA = NCCOCCOCC(=O)O
T1: amylin receptor (hAMY3R) (human, UniProt P30988 25-474; O60896 24-148)
T1 sequence (looked up) 1: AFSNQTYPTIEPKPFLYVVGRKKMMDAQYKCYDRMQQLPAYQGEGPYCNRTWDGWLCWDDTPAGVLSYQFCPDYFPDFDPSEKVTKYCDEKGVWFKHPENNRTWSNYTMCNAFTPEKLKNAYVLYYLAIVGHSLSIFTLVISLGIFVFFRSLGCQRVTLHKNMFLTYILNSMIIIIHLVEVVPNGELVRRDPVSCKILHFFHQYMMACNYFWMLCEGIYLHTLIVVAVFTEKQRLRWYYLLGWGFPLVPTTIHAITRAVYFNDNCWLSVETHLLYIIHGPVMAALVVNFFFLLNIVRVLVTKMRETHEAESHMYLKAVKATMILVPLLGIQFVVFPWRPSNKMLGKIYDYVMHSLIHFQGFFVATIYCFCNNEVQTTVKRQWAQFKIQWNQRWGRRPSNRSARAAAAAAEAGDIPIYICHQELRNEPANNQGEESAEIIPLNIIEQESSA
T1 sequence (looked up) 2: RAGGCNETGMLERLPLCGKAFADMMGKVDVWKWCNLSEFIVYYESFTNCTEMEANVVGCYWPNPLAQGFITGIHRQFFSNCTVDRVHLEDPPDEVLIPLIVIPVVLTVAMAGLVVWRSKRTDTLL

T2: calcitonin receptor (hCTR) (human, UniProt P30988 25-474)
T2 sequence (looked up): T1 sequence (looked up) 1

B1: M30 (peptide)
peptide: {C18 diacid-Inp′-AEEA-AEEA}-ASQLSTAVLGRLSDELHRLQDYPRTDVGSGSP-NH2
B2: M11 (peptide)
peptide: {C18 diacid}-EASQLSTAVLGRLSDELHRLQDYPRTDVGSGSP-NH2
B3: M24 (peptide)
peptide: {C18 diacid}-E[AEEA][AEEA]ASQLSTAVLGRLSDELHRLQDYPRTDVGSGSP-NH2
B4: M9 (peptide)
peptide: {C16 diacid-γGlu}-ASQLSTAVLGRLSDELHRLQDYPRTDVGSGSP-NH2
modifications: ends and bridges not checked
B5: N1 (peptide)
peptide: {C20 diacid-AEEA-AEEA}-KCNTATCATQRLADFLRHSSNNLKPILPPTNVGSNT[Hyp]-NH2
modifications: disulfide 2-7 (inferred); ends not checked
B6: N2 (peptide)
peptide: {C20 diacid-βAsp-AEEA-AEEA}-KCNTATCATQRLADFLRHSSNNLKPILPPTNVGSNT[Hyp]-NH2
modifications: disulfide 2-7 (inferred); ends not checked
B7: M22 (peptide)
peptide: {C18 diacid-γGlu-AEEA-AEEA}-ASQLSTAVLGRLSDELHRLQDYPRTDVGSGSP-NH2
B8: M7 (peptide)
peptide: {C22 diacid′-γGlu}-ASQLSTAVLGRLSDELHRLQDYPRTDVGSGSP-NH2
modifications: ends and bridges not checked
B9: M6 (peptide)
peptide: {C20 diacid-γGlu}-ASQLSTAVLGRLSDELHRLQDYPRTDVGSGSP-NH2
modifications: ends and bridges not checked
B10: M13 (peptide)
peptide: {C18 diacid}-DASQLSTAVLGRLSDELHRLQDYPRTDVGSGSP-NH2
B11: M26 (peptide)
peptide: {C18 diacid}-D[AEEA][AEEA]ASQLSTAVLGRLSDELHRLQDYPRTDVGSGSP-NH2
B12: N3 (peptide)
peptide: {C18 diacid-βAsp-AEEA-AEEA}-KCNTATCATQRLADFLRHSSNNLKPILPPTNVGSNT[Hyp]-NH2
modifications: disulfide 2-7 (inferred); ends not checked
B13: M17 (peptide)
peptide: {C18 diacid-Inp′}-ASQLSTAVLGRLSDELHRLQDYPRTDVGSGSP-NH2
B14: M25 (peptide)
peptide: ASQLSTAVLGRLSDELHRLQDYPRTDVGSGSP
modifications: not fully specified; N terminus: C20 diacid + βAsp+2 AEEAs
B15: M12 (peptide)
peptide: B14 peptide
modifications: not fully specified; N terminus: C20 diacid + βAsp
B16: M15 (peptide)
peptide: B14 peptide
modifications: N terminus: C18 diacid + Trx
B17: M16 (peptide)
peptide: B14 peptide
modifications: not fully specified; N terminus: C20 diacid + Inp
B18: M14 (peptide)
peptide: B14 peptide
modifications: not fully specified; N terminus: C20 diacid + Trx
B19: M21 (peptide)
peptide: B14 peptide
modifications: not fully specified; N terminus: C20 diacid + yGlu+8 AEEAs
B20: M27 (peptide)
peptide: B14 peptide
modifications: not fully specified; N terminus: C20 diacid + Trx+2 AEEAs
B21: M23 (peptide)
peptide: B14 peptide
modifications: not fully specified; N terminus: C20 diacid + αGlu+2 AEEAs
B22: M10 (peptide)
peptide: B14 peptide
modifications: not fully specified; N terminus: C20 diacid + αGlu
B23: M28 (peptide)
peptide: B14 peptide
modifications: N terminus: C18 diacid + Trx+2 AEEAs
B24: M29 (peptide)
peptide: B14 peptide
modifications: not fully specified; N terminus: C20 diacid + Inp+2 AEEAs
B25: M5 (peptide)
peptide: ASQLSTAVLGRLSQELHRLQDYPRTDVGSGSP-NH2
B26: M8 (peptide)
peptide: {C18 diacid-γGlu}-ASQLSTAVLGRLSDELHRLQDYPRTDVGSGSP-NH2
modifications: ends and bridges not checked
B27: M18 (peptide)
peptide: B14 peptide
modifications: not fully specified; N terminus: C20 diacid + yGlu+2 AEEAs

These binders were tested against T1, amylin receptor (hAMY3R) (assay: cell-based or functional assay).

fold increase of agonistic activity against the amylin receptor, compared with M17 | Binder
~70 fold | B1

Target: T1, amylin receptor (hAMY3R)
Assay: cell-based or functional assay
Remark: another data set of the same source

EC50, CRE-luciferase reporter in amylin receptor/CRE-luc CHO cells, 24 h | EC50, CRE-luciferase reporter in amylin receptor/CRE-luc CHO cells (incubation presumably 4 h, per paragraph 38) | EC50, CRE-luciferase reporter in amylin receptor/CRE-luc CHO cells (incubation presumably 24 h) | Binder
0.016 nM |  |  | B2
0.007 nM |  |  | B3
0.002 nM |  |  | B4
0.016 nM |  |  | B5
 | 9 pM | 0.04 nM | B6
0.015 nM |  |  | B7
0.022 nM |  |  | B8
0.017 nM |  |  | B9
0.016 nM |  |  | B10
0.008 nM |  |  | B11
 | 1 pM |  | B12
0.001 nM |  |  | B1
0.063 nM |  |  | B13
0.017 nM |  |  | B14
0.017 nM |  |  | B15
0.119 nM |  |  | B16
0.082 nM |  |  | B17
0.456 nM |  |  | B18
0.044 nM |  |  | B19
0.004 nM |  |  | B20
0.017 nM |  |  | B21
0.069 nM |  |  | B22
0.002 nM |  |  | B23
0.006 nM |  |  | B24
0.033 nM |  |  | B25
0.016 nM |  |  | B26

Each binder was assayed against T2, calcitonin receptor (hCTR) (assay: cell-based or functional assay).

EC50, CRE-luciferase reporter in calcitonin receptor/CRE-luc CHO cells, 24 h | Binder
0.071 nM | B2
0.081 nM | B3
0.12 nM | B4
0.194 nM | B8
0.028 nM | B9
0.085 nM | B10
0.024 nM | B11
0.259 nM | B13
0.138 nM | B14
0.073 nM | B15
0.469 nM | B16
0.376 nM | B17
0.587 nM | B18
0.069 nM | B27
0.165 nM | B26

Target: T1, amylin receptor (hAMY3R)
Assay: cell-based or functional assay
Remark: another data set of the same source

Fold change in activity against hAMY3R (benchmark D1) | hAMY3R EC50, CRE-luciferase reporter cells | Binder
2.25 fold |  | B2
5.14 fold |  | B3
2.12 fold |  | B9
36 fold |  | B1
0.571 fold |  | B13
2.12 fold |  | B14
2.12 fold |  | B15
0.303 fold |  | B16
0.439 fold |  | B17
0.079 fold |  | B18
2.25 fold | 0.016 nM | B27
9 fold |  | B20
18 fold |  | B23
6 fold |  | B24

Target: T2, calcitonin receptor (hCTR)
Assay: cell-based or functional assay
Remark: another data set of the same source

Fold change in activity against hCTR (benchmark D1) | hCTR EC50, CRE-luciferase reporter cells | Binder
1.21 fold |  | B2
1.06 fold |  | B3
3.07 fold |  | B9
0.848 fold | 0.101 nM | B1
0.332 fold |  | B13
0.623 fold |  | B14
1.18 fold |  | B15
0.183 fold |  | B16
0.229 fold |  | B17
0.147 fold |  | B18
1.25 fold |  | B27
0.161 fold | 0.533 nM | B20
0.966 fold | 0.089 nM | B23
0.551 fold | 0.156 nM | B24

Source: EP4721754A1 (Hangzhou Sciwind Biosciences Co., Ltd., dated 2026)
